The text below walks through data of patent US20240272170A1 (QUANTUM SI, published 2024).

The target in test [1] is T1, QP1165 after cleavage to N-terminal arginine (RVWK).
T1 peptide: RVWK
Kind of test: on-chip dynamic sequencing of QP1165, 500 nM PS2121 plus five recognizers, 15527 alignments.

Test [2] deals with T1, QP1165 after cleavage to N-terminal …. The test is described as follows: on-chip dynamic sequencing of QP1165, PS2132 run, trace Aperture=376215.
Test [3] has the same target. Kind of test: on-chip dynamic sequencing of QP1165, 500 nM PS2123 plus five recognizers, 62511 alignments.
Test [4] shares this target. The test is described as follows: on-chip dynamic sequencing of QP1165, 500 nM PS1875 plus five recognizers, 7305 alignments.
Test [5] has the same target. The test is described as follows: on-chip dynamic sequencing of QP1165, PS1875 run, trace Aperture=340501.
Test [6] has the same target. Kind of test: on-chip dynamic sequencing of QP1165, 500 nM PS1875 plus five recognizers, 11565 alignments. As for the experimental part:
(§1) The semiconductor chip was placed in the sequencing device and a chip check was performed to test electronic circuit function and to optimize laser coupling alignment. The chip was then removed from the device socket and the chip was washed twice with 50 μL of 70% isopropanol, followed by four washes with 30 μL of wash buffer (50 mM MOPS pH 8.0, 60 mM potassium acetate, 50 mM glucose, 20 mM magnesium acetate, and surfactant mix) through a flow cell attached to the chip. A second chip check was then performed. The laser was then blocked via an integrated software-controlled shutter, peptide complex was added to a final concentration of 1-10 nM and mixed thoroughly, and the chip was incubated for 15 min. The chip was then washed six times with wash buffer, followed by addition of an imaging solution (wash buffer with 5 mM Trolox and an oxygen scavenging system). The laser was unblocked and the occupancy percentage (target 10-30%, Poisson distributed) was recorded by acquiring a photobleaching signal from a fluorophore attached to the peptide complex during 5 min of laser illumination. […] Data was recorded for 15 min. The laser was then blocked briefly and aminopeptidases were added to the sequencing reaction via the flow cell and mixed thoroughly (final concentration 2-8 μM PhTET2 and/or 20-80 μM PhTET3, as indicated according to the experiment). The laser was then unblocked, and data was recorded for 10 hours. For all runs, 30 μL of mineral oil was added to fluid reservoirs at each port of the flow cell to prevent evaporation during the run.

Test [7] shares this target. Kind of test: on-chip dynamic sequencing of QP1165, PS1875 run, trace Aperture=1377116. The protocol:
as §1

For test [8] the target is unchanged. Kind of test: on-chip dynamic sequencing of QP1165, PS2132 run, trace Aperture=1826247.
Test [9] has the same target. The test is described as follows: on-chip dynamic sequencing of QP1165, PS1875 run, trace Aperture=1353995.
Test [10] has the same target. The test is described as follows: on-chip dynamic sequencing of QP1165, PS1875 run, trace Aperture=295010.
The target is the same in test [11]. Kind of test: on-chip dynamic sequencing of QP1165, PS2123 run, trace Aperture=1168773.
Test [12] shares this target. Kind of test: on-chip dynamic sequencing of QP1165, 500 nM PS1875 plus five recognizers, 3369 alignments.
Test [13] has the same target. The test is described as follows: on-chip dynamic sequencing of QP1165, PS2121 run, trace Aperture=740473.
The target is the same in test [14]. Kind of test: on-chip dynamic sequencing of QP1165, PS1875 run, trace Aperture=430641.
The target is the same in test [15]. Kind of test: on-chip dynamic sequencing of QP1165, 500 nM PS2132 plus five recognizers, 36192 alignments.
Test [16] shares this target. Kind of test: on-chip dynamic sequencing of QP1165, PS2121 run, trace Aperture=1683362.
Test [17] deals with T2, QP1165 after cleavage to N-terminal alanine (AFLKQRVWK).
T2 peptide: AFLKQRVWK
Kind of test: on-chip dynamic sequencing of QP1165, 500 nM PS2121 plus five recognizers, 15527 alignments.

Test [18] has as its target T2, QP1165 after cleavage to N-terminal …. The test is described as follows: on-chip dynamic sequencing of QP1165, PS2132 run, trace Aperture=376215.
Test [19] shares this target. Kind of test: on-chip dynamic sequencing of QP1165, 500 nM PS2123 plus five recognizers, 62511 alignments.
Test [20] shares this target. The test is described as follows: on-chip dynamic sequencing of QP1165, 500 nM PS1875 plus five recognizers, 7305 alignments.
The target is the same in test [21]. Kind of test: on-chip dynamic sequencing of QP1165, PS2123 run, trace Aperture=501326.
For test [22] the target is unchanged. Kind of test: on-chip dynamic sequencing of QP1165, 500 nM PS1875 plus five recognizers, 11565 alignments. As for the experimental part: as §1
The target is the same in test [23]. The test is described as follows: on-chip dynamic sequencing of QP1165, PS1875 run, trace Aperture=1311609.
Test [24] shares this target. Kind of test: on-chip dynamic sequencing of QP1165, PS1875 run, trace Aperture=1377116. The protocol: as §1
Test [25] has the same target. The test is described as follows: on-chip dynamic sequencing of QP1165, PS2132 run, trace Aperture=1826247.
Test [26] shares this target. The test is described as follows: on-chip dynamic sequencing of QP1165, PS1875 run, trace Aperture=1353995.
Test [27] shares this target. The test is described as follows: on-chip dynamic sequencing of QP1165, PS2123 run, trace Aperture=1168773.
Test [28] shares this target. The test is described as follows: on-chip dynamic sequencing of QP1165, 500 nM PS1875 plus five recognizers, 3369 alignments.
The target is the same in test [29]. The test is described as follows: on-chip dynamic sequencing of QP1165, PS2121 run, trace Aperture=740473.
The target is the same in test [30]. Kind of test: on-chip dynamic sequencing of QP1165, PS1875 run, trace Aperture=430641.
For test [31] the target is unchanged. The test is described as follows: on-chip dynamic sequencing of QP1165, 500 nM PS2132 plus five recognizers, 36192 alignments.
Test [32] has the same target. The test is described as follows: on-chip dynamic sequencing of QP1165, PS2121 run, trace Aperture=1683362.
For test [33], the target named is T3, LA peptide.
T3 construct: The peptide was coated on the Octet sensor; also called peptide with N-terminal leucine and penultimate alanine
Kind of test: BLI (Octet), peptide on sensor, purified protein in solution. The text has this:
(§2) In the high-throughput assay, Octet sensors are coated with the peptide of interest and dipped in buffer containing the purified protein. An approximation of relative binding can be obtained by comparing the response after 200 seconds for each protein. Each protein has approximately the same molecular mass and is used at the same concentration, so ranking the proteins by response level in this assay gives an approximation of which proteins have improved binding. Studying the on and off-rate can also give insight into the mechanism of binding.
For orientation: In BLI a coated tip is dipped into the sample, and binding shifts an interference pattern.

The target in test [34] is T4, VA peptide.
T4 construct: The peptide was coated on the Octet sensor; also called peptide with N-terminal valine and penultimate alanine
The description is as above.
Source text: as §2

The target in test [35] is T5, AA peptide.
T5 construct: The peptide was coated on the Octet sensor; also called peptide with N-terminal alanine and penultimate alanine
The description is as above.
Source text: as §2

Test [36] concerns the target T3, LA peptide. Kind of test: BLI (Octet), peptide on sensor, purified protein in solution; second row for PS829.
Source text: as §2

Test [37] concerns the target T4, VA peptide. The test is described as above.
Source text: as §2

The target in test [38] is T5, AA peptide. Described as above.
Source text: as §2

B1: PS1220 (designed binder)
single polypeptide, two PS1122 units in tandem: MHSKFSHAGRICGAKFKVGEPIYRCKECSFDDTCVLCVNCFNPKDHLGHHVYTTICTEFNNGECDCGDKTAWNHTLFCKAEEGSAGSAAGSGEFMHSKFSHAGRICGAKFKVGEPIYRCKECSFDDTCVLCVNCFNPKDHLGHHVYTTICTEFNNGECDCGDKTAWNHTLFCKAEEG
notes: also called PS1220 (R); PS1220 (4-CY3B)
For the molecule B1, the “IPD (interpulse duration)” value in test [1] was 11.9 s; in test [3], 9.74 s; in [4], 10.5 s; in [6], 10.6 s; in test [12], 9.99 s; in [15] it was 11.1 s. The “PD (pulse duration)” value in test [1] stood at 0.46 s; in test [3], 0.4 s; in test [4] it was 0.43 s; in test [6], 0.37 s; in test [12], 0.42 s; in [15], 0.44 s. Moreover, the “PD of a recognition segment in an example trace” value (from here on “PD of a recognition segment”) is 0.94 s in test [2]; 0.31 s in test [5]; 0.4 s in test [7]; 0.27 s in [8]; 0.34 s in [9]; 0.3 s in [10]. The “PD of a recognition segment” value in test [11] turned out to be 0.3 s; in test [13], 0.71 s; in test [14] it was 0.31 s; in [16] it was 0.45 s.

B2: PS1587 (designed binder)
single polypeptide, two PS1165 units in tandem: MGLENSLETLRFSISNLSMQTHAARMRTFMYWPSSVPVQPEQLASAGFYYVGRNDDVKCFCCDGGLRCWESGDDPWVEHAKWFPRCEFLIRMKGQEFVDEIQGRYPHLLEQLLSEAAAKEAAAKEAAAKMGLENSLETLRFSISNLSMQTHAARMRTFMYWPSSVPVQPEQLASAGFYYVGRNDDVKCFCCDGGLRCWESGDDPWVEHAKWFPRCEFLIRMKGQEFVDEIQGRYPHLLEQLLSG
notes: also called PS1587 (AST)
B2: the “IPD (interpulse duration)” value amounted to 16 s in test [17]; 17.4 s in [19]; 15 s in [20]; 17.2 s in test [22]; 14.7 s in [28]; 16.1 s in [31]. The “PD (pulse duration)” value in test [17] was determined as 0.72 s; in test [19], 0.7 s; in [20] it was 0.66 s; in test [22], 0.72 s; in [28] it was 0.76 s; in test [31] it was 0.62 s. The “PD of a recognition segment” value was 0.32 s in [18]; 0.39 s in [21]; 1.26 s in test [23]; 0.75 s in test [24]; 0.64 s in [25]; 0.87 s in [26]. Besides, the “PD of a recognition segment” value stood at 0.43 s in test [27], 0.75 s in test [29], 0.64 s in [30] and 2.53 s in [32].

B3: PS829 (designed binder)
chain: MPTAASATESAIEDTPAPARPEVDGRTKPKRQPRYHVVLWDDDDHTYQYVVVMLQSLFGHPRERGYRLAKEMDTLGRVIVLTTTREHAELKRDQIHAFGYDRLLARSKGSMKASIEAEE
notes: Variant of PS557
For the molecule B3, the “Octet response after 200 sec association” value in the test with LA peptide [33] was determined as 8.5 nm; with VA peptide [34] it was 9.5 nm; with AA peptide [35] it was 2.5 nm; with LA peptide [36], 10.9 nm; in the test with VA peptide [37] it was 11.3 nm; with AA peptide [38] it was 4.5 nm.
